# B1: Hexokinase-4 (Homo sapiens), P35557 (protein)
# chain: MLDDRARMEAAKKEKVEQILAEFQLQEEDLKKVMRRMQKEMDRGLRLETHEEASVKMLPTYVRSTPEGSEVGDFLSLDLGGTNFRVMLVKVGEGEEGQWSVKTKHQMYSIPEDAMTGTAEMLFDYISECISDFLDKHQMKHKKLPLGFTFSFPVRHEDIDKGILLNWTKGFKASGAEGNNVVGLLRDAIKRRGDFEMDVVAMVNDTVATMISCYYEDHQCEVGMIVGTGCNACYMEEMQNVELVEGDEGRMCVNTEWGAFGDSGELDEFLLEYDRLVDESSANPGQQLYEKLIGGKYMGELVRLVLLRLVDENLLFHGEASEQLRTRGAFETRFVSQVESDTGDRKQIYNILSTLGLRPSTTDCDIVRRACESVSTRAAHMCSAGLAGVINRMRESRSEDVMRITVGVDGSVYKLHPSFKERFHASVRRLTPSCEITFIESEEGSGRGAALVSAVACKKACMLGQ
# What was measured:
# [1] = compound: CCNC(=O)Nc1ncc(Sc2ccccn2)cc1Oc1cccnc1CC; experiment: (§1) Activation of purified human glucokinase isoform 3 (13 to 466 aa) assessed as Vmax by spectrophotometry in presence of varying concentration of glucose relative to control
# [2] = compound: CCOC(=O)Nc1ncc(Sc2ccccn2)cc1Oc1cccnc1CC; experiment: as §1
# [3] = compound: CCc1ncccc1Oc1cc(Sc2ccccn2)cnc1NC(=O)NC; experiment: as §1
# [4] = compound: CCc1ncccc1Oc1cc(Sc2ccccn2)cnc1NC(=O)NC(C)C; experiment: as §1
# [5] = compound: CCc1ncccc1Oc1cc(Sc2ccccn2)cnc1NC(=O)NCCO; experiment: as §1
# [6] = compound: CCc1ncccc1Oc1cc(Sc2ccccn2)cnc1NC(=O)NCc1ccc(O)cc1; experiment: as §1
# [7] = compound: CCc1ncccc1Oc1cc(Sc2ccccn2)cnc1NC(=O)NCc1cccc(O)c1; experiment: as §1
# [8] = compound: CCc1ncccc1Oc1cc(Sc2ccccn2)cnc1NC(=O)NCc1ccccc1O; experiment: as §1
# [9] = compound: CCc1ncccc1Oc1cc(Sc2ccccn2)cnc1NC(=O)NCc1ccccn1; experiment: as §1
# [10] = compound: CCc1ncccc1Oc1cc(Sc2ccccn2)cnc1NC(=O)NCc1cccnc1; experiment: as §1
# [11] = compound: CCc1ncccc1Oc1cc(Sc2ccccn2)cnc1NC(=O)NCc1ccncc1; experiment: as §1
# [12] = compound: CCc1ncccc1Oc1cc(Sc2ccccn2)cnc1NC(C)=O; experiment: as §1
# [13] = compound: CCc1ncccc1Oc1cc(Sc2ccccn2)cnc1NC(N)=O; experiment: as §1
# [14] = compound: CCc1ncccc1Oc1cc(Sc2ccccn2)cnc1NC=O; experiment: as §1
# [15] = compound: CCn1nccc1Oc1cc(Sc2ccccn2)cnc1NC(=O)NC; experiment: as §1
# [16] = compound: CNC(=O)Nc1ncc(SC2CCN(C(=O)OC(C)(C)C)CC2)cc1Oc1cccnc1C; experiment: as §1
# [17] = compound: CNC(=O)Nc1ncc(SC2CCN(C(C)=O)CC2)cc1Oc1cccnc1C; experiment: as §1
# [18] = compound: CNC(=O)Nc1ncc(SC2CCN(S(C)(=O)=O)CC2)cc1Oc1cccnc1C; experiment: as §1
# [19] = compound: CNC(=O)Nc1ncc(SC2CCOCC2)cc1Oc1cccnc1C; experiment: as §1
# [20] = compound: CNC(=O)Nc1ncc(SCC2CCOCC2)cc1Oc1cccnc1C; experiment: as §1
# [21] = compound: CNC(=O)Nc1ncc(SCCCO)cc1Oc1cccnc1C; experiment: as §1
# [22] = compound: CNC(=O)Nc1ncc(SCCCOC)cc1Oc1cccnc1C; experiment: as §1
# [23] = compound: CNC(=O)Nc1ncc(SCc2ccccc2)cc1Oc1cccnc1C; experiment: as §1
# [24] = compound: CNC(=O)Nc1ncc(SCc2ccccn2)cc1Oc1cccnc1C; experiment: as §1
# [25] = compound: CNC(=O)Nc1ncc(Sc2ccccn2)cc1Oc1c(C)n[nH]c1C; experiment: as §1
# [26] = compound: CNC(=O)Nc1ncc(Sc2ccccn2)cc1Oc1cccnc1C; experiment: as §1
protein,measurement,setting,value
B1,Vmax,[1],64%
same,Vmax,[2],Not active
same,Vmax,[3],77%
same,Vmax,[4],Not active
same,Vmax,[5],66%
same,Vmax,[6],66%
same,Vmax,[7],68%
same,Vmax,[8],84%
same,Vmax,[9],72%
same,Vmax,[10],75%
same,Vmax,[11],73%
same,Vmax,[12],Not active
same,Vmax,[13],77%
same,Vmax,[14],104%
same,Vmax,[15],90%
same,Vmax,[16],75%
same,Vmax,[17],59%
same,Vmax,[18],54%
same,Vmax,[19],73%
same,Vmax,[20],88%
same,Vmax,[21],80%
same,Vmax,[22],87%
same,Vmax,[23],76%
same,Vmax,[24],146%
same,Vmax,[25],53%
same,Vmax,[26],74%

# — ChEMBL document CHEMBL3352420, “Discovery of 2-pyridylureas as glucokinase activators” (J Med Chem, 2014)
